Measured values reported in US20220275069.

Tested on: T1, Recombinant gasdermin D (rGSDMD), full-length
T1 sequence: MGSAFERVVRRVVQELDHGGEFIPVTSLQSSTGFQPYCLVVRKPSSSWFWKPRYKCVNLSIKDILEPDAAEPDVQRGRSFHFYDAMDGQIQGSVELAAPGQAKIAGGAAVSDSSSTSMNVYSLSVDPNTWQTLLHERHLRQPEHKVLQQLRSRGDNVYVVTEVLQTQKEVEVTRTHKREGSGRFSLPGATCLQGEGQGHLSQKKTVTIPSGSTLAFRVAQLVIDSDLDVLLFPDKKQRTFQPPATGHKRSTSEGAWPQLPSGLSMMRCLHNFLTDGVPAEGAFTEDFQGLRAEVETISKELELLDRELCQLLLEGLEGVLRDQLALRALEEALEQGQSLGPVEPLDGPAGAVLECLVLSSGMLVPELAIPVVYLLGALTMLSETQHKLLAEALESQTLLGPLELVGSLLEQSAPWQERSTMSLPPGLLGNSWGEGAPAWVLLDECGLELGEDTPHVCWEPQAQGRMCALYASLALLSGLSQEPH

Recombinant caspase-1
cleavage of recombinant gasdermin D (1 hour at 37 C, SDS-PAGE and protein stain): resulted in the formation of a ~31 kDa N-terminal domain and ~22 kDa C-terminal domain
